# Source: patent US20180127505A1, “HUMANIZED ANTI-AXL ANTIBODIES AND THEIR CONJUGATES” (MEDIMMUNE LIMITED, priority 2015, published 2018)
# B1: Ab2: anti-AXL antibody, VH SEQ ID NO. 2, VL SEQ ID NO. 5, constant region derived from human antibodies (antibody, V domains shown)
# VH: MGFKMESQFQVFVFVFLWLSGVDGQVQLVESGGGVVQPGRSLRLSCAASGFTFSSYGMSVRQAPGKGLEWVATISSGGSYTYYPDSVKGRFTISRDNSKNTLYLQMNSLRAEDTAVYYCARHPIYYTYDDTMDYWGQGTTVTVSS
# VL: MGFKMESQFQVFVFVFLWLSGVDGEIVLTQSPATLSLSPGERATLSCSASSSVSSGNFHWYQQKPGLAPRLLIYRTSNLASGIPDRFSGSGSGTDFTLTISRLEPEDFAVYYCQQWSGYPWTFGPGTKVDIK
# modifications: human constant regions; Synthetic heavy chain variable region 1H12RHA; Synthetic light chain variable region 1H12RKA
# notes: 5, constant region derived from human antibodies
# B2: Ab3: anti-AXL antibody, VH SEQ ID NO. 2, VL SEQ ID NO. 7, constant region derived from human antibodies (antibody, V domains shown)
# VH: MGFKMESQFQVFVFVFLWLSGVDGQVQLVESGGGVVQPGRSLRLSCAASGFTFSSYGMSVRQAPGKGLEWVATISSGGSYTYYPDSVKGRFTISRDNSKNTLYLQMNSLRAEDTAVYYCARHPIYYTYDDTMDYWGQGTTVTVSS
# VL: MGFKMESQFQVFVFVFLWLSGVDGEIVLTQSPGTLSLSPGERATLSCSASSSVSSGNFHWYQQKPGLAPRLLIYRTSNLASGIPARFSGSGSGTDFTLTISSLEPEDFAVYYCQQWSGYPWTFGGGTKLEIK
# modifications: human constant regions; Synthetic heavy chain variable region 1H12RHA; Synthetic light chain variable region 1H12RKB
# notes: 7, constant region derived from human antibodies
# B3: Ab5: anti-AXL antibody, VH SEQ ID NO. 3, VL SEQ ID NO. 7, constant region derived from human antibodies (antibody, V domains shown)
# VH: MGFKMESQFQVFVFVFLWLSGVDGEVQLVESGGGLVQPGGSLRLSCAASGFTFSSYGMSWVRQAPGKGLEWVATISSGGSYTYYPDSVKGRFTISRDNAKNSLYLQMNSLRAEDTAVYYCARHPIYYTYDDTMDYWGQGTLVTVSS
# VL: MGFKMESQFQVFVFVFLWLSGVDGEIVLTQSPGTLSLSPGERATLSCSASSSVSSGNFHWYQQKPGLAPRLLIYRTSNLASGIPARFSGSGSGTDFTLTISSLEPEDFAVYYCQQWSGYPWTFGGGTKLEIK
# modifications: human constant regions; Synthetic heavy chain variable region 1H12RHB; Synthetic light chain variable region 1H12RKB
# notes: as for B2
# B4: Ab4: anti-AXL antibody, VH SEQ ID NO. 3, VL SEQ ID NO. 5, constant region derived from human antibodies (antibody, V domains shown)
# VH: MGFKMESQFQVFVFVFLWLSGVDGEVQLVESGGGLVQPGGSLRLSCAASGFTFSSYGMSWVRQAPGKGLEWVATISSGGSYTYYPDSVKGRFTISRDNAKNSLYLQMNSLRAEDTAVYYCARHPIYYTYDDTMDYWGQGTLVTVSS
# VL: MGFKMESQFQVFVFVFLWLSGVDGEIVLTQSPATLSLSPGERATLSCSASSSVSSGNFHWYQQKPGLAPRLLIYRTSNLASGIPDRFSGSGSGTDFTLTISRLEPEDFAVYYCQQWSGYPWTFGPGTKVDIK
# modifications: human constant regions; Synthetic heavy chain variable region 1H12RHB; Synthetic light chain variable region 1H12RKA
# notes: as for B1
# B5: Ab1 (antibody, V domains shown)
# VH: EVQLVESGGDLVKPGGSLKLSCAASGFTFSSYGMSWVRQTPDKRLEWVATISSGGSYTYYPDSVKGRFTISRDNAKNTLYLQMSSLKSEDTAMYYCARHPIYYTYDDTMDYWGQGTSVTVSS
# VL: ENVLTQSPAIMAASPGEKVTMTCSASSSVSSGNFHWYQQKPGTSPKLWIYRTSNLASGVPARFSGSGSGTSYSLTISSMEAEDAATYYCQQWSGYPWTFGGGTKLEIK
# How the values were obtained:
# human Axl-Strep-His = target: T1, human Axl-Strep-His (Homo sapiens, UniProt P30530, Q764R); assay: SPR measurement of antibody affinity, AXL-Strep-His antigen; format: binding; details: for affinity for Axl-Strep-His compared with Ab1: SPR; for ka, AXL-Strep-His antigen / kd, AXL-Strep-His antigen / Kd: SPR Biacore T200, 25 C, bivalent ligand model (Ab1: heterogeneous ligand model); for Kd: read-out: KD1, AXL-Strep-His antigen
# T1 construct: Strep; His; host or cells: transiently transfected CHO cells
# T1 sequence (P30530 26-894 Q764R): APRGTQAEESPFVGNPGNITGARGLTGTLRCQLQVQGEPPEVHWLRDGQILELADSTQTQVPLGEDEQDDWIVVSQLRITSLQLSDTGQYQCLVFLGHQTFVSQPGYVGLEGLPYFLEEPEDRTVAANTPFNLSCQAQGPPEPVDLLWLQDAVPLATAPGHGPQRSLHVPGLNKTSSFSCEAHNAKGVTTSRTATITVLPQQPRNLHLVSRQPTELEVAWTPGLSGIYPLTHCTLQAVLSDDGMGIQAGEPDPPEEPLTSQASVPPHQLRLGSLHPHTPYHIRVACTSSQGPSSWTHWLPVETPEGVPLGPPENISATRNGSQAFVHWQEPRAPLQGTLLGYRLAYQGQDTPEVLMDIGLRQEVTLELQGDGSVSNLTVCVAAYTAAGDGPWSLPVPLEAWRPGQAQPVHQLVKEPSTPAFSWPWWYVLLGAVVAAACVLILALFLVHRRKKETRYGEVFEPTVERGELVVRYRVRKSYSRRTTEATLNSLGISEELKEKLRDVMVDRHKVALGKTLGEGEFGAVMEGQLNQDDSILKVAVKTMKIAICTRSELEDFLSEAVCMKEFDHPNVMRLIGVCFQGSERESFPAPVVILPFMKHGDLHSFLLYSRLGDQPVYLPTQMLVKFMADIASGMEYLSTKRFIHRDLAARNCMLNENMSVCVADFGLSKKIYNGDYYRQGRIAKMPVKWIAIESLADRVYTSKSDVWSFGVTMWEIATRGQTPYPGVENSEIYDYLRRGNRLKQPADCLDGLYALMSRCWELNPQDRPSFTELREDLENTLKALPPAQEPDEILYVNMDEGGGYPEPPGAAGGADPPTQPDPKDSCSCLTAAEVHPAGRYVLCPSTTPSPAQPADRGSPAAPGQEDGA
# Protocol: (§1) Protocol 4A: SPR Measurement of Antibody Affinity
# (§2) • 1. Sensor Chip CM5 Biacore; Cat. # BR-1000-14 • 2. Amine Coupling Kit (EDC, NHS, ethanolamine-HCl) Biacore; Cat. # BR-1000-50 • 3. Immobilization buffer (10 mM Na acetate, pH 4.0) Biacore; Cat. # BR-1003-49 • 4. 50 mM NaOH Biacore; Cat. # BR-1003-58 • 5. Running buffer (PBS/Tween20 0.05% v/v) • 6. Biacore T200 GE Healthcare • 7. Regeneration solution: 10 mM HCl, 1 M NaCl
# (§3) • Activate flow cell 2 with NHS-EDC 420s at 5 μl/min, then inject human AxI-Strep-His (Evitria) (10 μg/mL in 10 mM sodium acetate, pH 4.0) to achieve a coupling of […]. Block with ethanolamine for 420s. Repeat the process for flow cell 1 but with no antigen to create a reference flow cell. 12RU AXL fusion protein was coated. • For the Fc fusion, Human Axl-Fc chimera (R&D Systems #154-AL) (5 μg/mL in 10 mM sodium acetate, pH 4.5) was used with the above protocol. 16RU of AXL-Fc was coated. Protocol with AXL-Strep-His Antigen • Serial 10x dilutions of antibody, from 3000 nM, were made in PBS/Tween20. 2x regeneration cycles were used with 10 mM HCl, 1 M NaCl for 30s at 30 μl/min for both cycles. Start-up solution was PBS/Tween20 and set to 3 cycles. • Sample injection parameters were 120s at 30 μl/min, with 600s dissociation time. • Prime and normalise detector were run before sample application with experimental conditions 25 C and sample storage at 4 C. • Kinetic analysis used BIAevaluation software with bivalent ligand binding model. For chimeric 1H12 with AXL-Strep-His, “heterogeneous ligand” binding model was used due to poor fit with bivalent or monovalent algorithms. • Each antibody dilution was injected twice. Protocol with AXL-Fc Chimera Antigen • The above protocol was used except that the running buffer was HBSEP+, serial 10x dilutions of antibody were from 500 nM in HBSEP+ running buffer and were injected for 180 sec. • Analysis used BIAevaluation software with the bivalent binding model.
# Human Axl-Fc chimera = target: T2, Human Axl-Fc chimera (Homo sapiens, UniProt P30530); assay: SPR measurement of antibody affinity, AXL-Fc chimera antigen; format: binding; details: for Kd / ka, AXL-Fc antigen / kd, AXL-Fc antigen: HBSEP+ running buffer, bivalent binding model
# T2 construct: purchased R&D Systems 154-AL
# T2 sequence (P30530 with tags, fused parts or gaps isoform P30530-2 limits assumed): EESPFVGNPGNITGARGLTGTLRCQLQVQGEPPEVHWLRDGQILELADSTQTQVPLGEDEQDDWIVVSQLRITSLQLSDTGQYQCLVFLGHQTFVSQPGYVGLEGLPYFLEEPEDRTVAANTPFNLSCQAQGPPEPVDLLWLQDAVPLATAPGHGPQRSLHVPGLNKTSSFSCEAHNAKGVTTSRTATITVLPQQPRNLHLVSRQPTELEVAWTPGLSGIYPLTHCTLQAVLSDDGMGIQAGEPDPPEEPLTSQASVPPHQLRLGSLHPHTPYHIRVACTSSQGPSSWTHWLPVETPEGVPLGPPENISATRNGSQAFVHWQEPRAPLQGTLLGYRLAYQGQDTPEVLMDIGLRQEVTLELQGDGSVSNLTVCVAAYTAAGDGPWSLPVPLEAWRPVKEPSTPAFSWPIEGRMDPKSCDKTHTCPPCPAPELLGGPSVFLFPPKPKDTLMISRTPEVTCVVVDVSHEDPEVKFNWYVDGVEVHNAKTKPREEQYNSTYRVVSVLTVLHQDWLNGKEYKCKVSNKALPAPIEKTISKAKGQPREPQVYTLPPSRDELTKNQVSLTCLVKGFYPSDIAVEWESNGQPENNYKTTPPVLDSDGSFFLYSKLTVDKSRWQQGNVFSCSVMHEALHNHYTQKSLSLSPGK
# Protocol: as §1, §2, §3
# [1] = Protein thermal shift (Tm); format: physicochemical; details: 0.5 mg/mL in PBS, HEK293F expression product
# Protocol: Protocol 6: Protein Thermal Shift Protocol
# • 96 well optical plate semi-skirted (Starlab cat.L1402-9700). • Protein thermal shift dye kit (Life Technologies cat.446148). • Microamp optical adhesive film (Applied Biosystems) • 7500 Real-Time PCR System (Life Technologies) • Test items: Antibodies from Evitria and Spirogen • Protein thermal shift v1.2 software (Life Technologies)
# Protein thermal shift dye (2.5 μL 1:1000 dilution) was added to sample proteins (17.5 μL of 0.5 mg/mL in PBS) in a 96 well optical plate and mixed thoroughly. Every sample was done in quadruplicate. The plate was sealed with a optical adhesive film and bubbles in the wells were removed by centrifugation 1 min at 500 g, then placed on ice. The sealed plate was introduced in the 7500 Real-Time PCR System and subsequently the experiment was set up as follows:
# Data analysis and derivation of Tm data were done using the software following the manufacturers instructions.
Molecule,affinity for Axl-Strep-His compared with Ab1 (human Axl-Strep-His),"ka, AXL-Strep-His antigen (human Axl-Strep-His)","kd, AXL-Strep-His antigen (human Axl-Strep-His)",Kd (human Axl-Strep-His),affinity for Axl-Fc compared with Ab1 (Human Axl-Fc chimera),Kd (Human Axl-Fc chimera),"ka, AXL-Fc antigen (Human Axl-Fc chimera)","kd, AXL-Fc antigen (Human Axl-Fc chimera)",Tm [1]
B1,higher affinity,13200 M⁻¹ s⁻¹,0.000441 s⁻¹,33.4 nM,higher affinity,1.84 nM,83700 M⁻¹ s⁻¹,0.000154 s⁻¹,59.71 °C
B2,higher affinity,19200 M⁻¹ s⁻¹,0.000636 s⁻¹,33.1 nM,,8.5 nM,24500 M⁻¹ s⁻¹,0.0002 s⁻¹,62.05 °C
B3,higher affinity,18900 M⁻¹ s⁻¹,0.000435 s⁻¹,,,,20600 M⁻¹ s⁻¹,0.000159 s⁻¹,63.06 °C
B4,,9759 M⁻¹ s⁻¹,0.00059 s⁻¹,,higher affinity,,290000 M⁻¹ s⁻¹,0.000396 s⁻¹,60.32 °C
B5,,13100 M⁻¹ s⁻¹,0.000533 s⁻¹,,,,30900 M⁻¹ s⁻¹,0.000142 s⁻¹,69.52 °C
